# Test results: patent US20050202440A1
# Biological target: androgen receptor ligand binding domain (AR LBD) bound with DHT (chimp construct; LBD sequence stated identical to human)
# Assay: X-ray cocrystal structure; surface area buried from both molecules on binding
# Sequence of androgen receptor ligand binding domain (AR LBD) bound with DHT (chimp construct; LBD sequence stated identical to human) (P10275 whole entry, the tested form may be a part): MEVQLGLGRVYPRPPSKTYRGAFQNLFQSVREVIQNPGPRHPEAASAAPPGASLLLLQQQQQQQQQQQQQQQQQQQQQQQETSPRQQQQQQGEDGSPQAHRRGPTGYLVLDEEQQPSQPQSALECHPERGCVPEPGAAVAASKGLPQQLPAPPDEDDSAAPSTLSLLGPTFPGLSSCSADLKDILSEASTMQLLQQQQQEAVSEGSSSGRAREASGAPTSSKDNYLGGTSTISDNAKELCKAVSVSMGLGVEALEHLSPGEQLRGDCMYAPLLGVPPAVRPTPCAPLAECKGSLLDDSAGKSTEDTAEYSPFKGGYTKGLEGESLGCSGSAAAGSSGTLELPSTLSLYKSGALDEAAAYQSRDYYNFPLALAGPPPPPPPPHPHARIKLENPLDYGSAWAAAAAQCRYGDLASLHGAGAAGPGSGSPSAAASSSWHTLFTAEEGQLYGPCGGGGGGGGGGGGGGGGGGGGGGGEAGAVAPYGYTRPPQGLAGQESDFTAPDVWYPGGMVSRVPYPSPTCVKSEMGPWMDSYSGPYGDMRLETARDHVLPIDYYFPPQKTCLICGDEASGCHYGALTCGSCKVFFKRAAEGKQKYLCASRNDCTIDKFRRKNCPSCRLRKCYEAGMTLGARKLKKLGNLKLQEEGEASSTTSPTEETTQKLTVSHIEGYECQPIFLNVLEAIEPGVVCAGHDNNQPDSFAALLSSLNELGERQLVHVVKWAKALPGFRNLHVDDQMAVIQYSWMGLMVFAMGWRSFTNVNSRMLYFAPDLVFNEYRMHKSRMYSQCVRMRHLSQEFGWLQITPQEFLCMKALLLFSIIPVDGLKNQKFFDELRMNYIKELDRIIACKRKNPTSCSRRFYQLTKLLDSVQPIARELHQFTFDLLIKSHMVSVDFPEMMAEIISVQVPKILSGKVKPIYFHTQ
row,Binder,buried surface area
1,SRWQALFDDGTDTSR [coactivator-related peptide CRP-2],963 Å^2
2,SSRFESLFAGEKESR [coactivator-related peptide CRP-3],1020 A^2
3,SSRGLLWDLLTKDSR [coactivator-related peptide CRP-1],987 A^2

# Results, then the binder that gave them:
row,buried surface area,Binder
1,930 Å^2,SSKFAALWDPPKLSR [coactivator-related peptide CRP-4]
2,1230 Å^2,SSNTPRFKEYFMQSR [coactivator-related peptide CRP-6]
3,882 Å^2,SRWAEVWDDNSKVSR [coactivator-related peptide CRP-7]
4,920 Å^2,SRFADFFRNEGLSGSR [coactivator-related peptide CRP-5]
